According to publication PMC10902665, “Stable structures or PABP1 loading protects cellular and viral RNAs against ISG20-mediated decay”:

Legend:
[1] = target: PABP1 (poly(A)-binding protein 1) (UniProt P11940 1-636); assay: EMSA; 5 mM Mg2+; PABP1 50-500 nM, RNA 10 nM; ISG20 EMSA: 50 mM Tris-HCl pH 7.4, 150 mM NaCl, 5 mM b-mercaptoethanol, 10 mM MnCl2, 0.1 ug/ul BSA, 5% glycerol, 30 C 30 min; PABP1 EMSA: 25 mM Tris-HCl pH 7.4, 5 mM MgCl2, 100 mM NaCl, 2.5 mM DTT, 0.2 ug/ul BSA, 10% glycerol, 37 C 15 min; conditions: protein: recombinant; tags: His; label: 5' 32P; single strand
ISG20 WT = ISG20 WT (UniProt Q96AZ6 1-181); assay: EMSA; 10 mM Mn2+; ISG20 50-1600 nM, RNA 10 nM; fitted curve, no Kd printed in the material; ISG20 EMSA: 50 mM Tris-HCl pH 7.4, 150 mM NaCl, 5 mM b-mercaptoethanol, 10 mM MnCl2, 0.1 ug/ul BSA, 5% glycerol, 30 C 30 min; PABP1 EMSA: 25 mM Tris-HCl pH 7.4, 5 mM MgCl2, 100 mM NaCl, 2.5 mM DTT, 0.2 ug/ul BSA, 10% glycerol, 37 C 15 min; conditions: protein: recombinant; tags: N-terminal 6xHis; label: 5' 32P; hairpin
Chain of ISG20 WT (Q96AZ6 whole entry): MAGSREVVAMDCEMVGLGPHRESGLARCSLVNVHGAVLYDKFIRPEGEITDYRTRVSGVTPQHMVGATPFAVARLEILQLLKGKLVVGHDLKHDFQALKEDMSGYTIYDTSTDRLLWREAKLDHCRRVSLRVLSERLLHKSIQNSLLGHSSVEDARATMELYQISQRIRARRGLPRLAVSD

Chain of PABP1 (poly(A)-binding protein 1) (P11940 whole entry): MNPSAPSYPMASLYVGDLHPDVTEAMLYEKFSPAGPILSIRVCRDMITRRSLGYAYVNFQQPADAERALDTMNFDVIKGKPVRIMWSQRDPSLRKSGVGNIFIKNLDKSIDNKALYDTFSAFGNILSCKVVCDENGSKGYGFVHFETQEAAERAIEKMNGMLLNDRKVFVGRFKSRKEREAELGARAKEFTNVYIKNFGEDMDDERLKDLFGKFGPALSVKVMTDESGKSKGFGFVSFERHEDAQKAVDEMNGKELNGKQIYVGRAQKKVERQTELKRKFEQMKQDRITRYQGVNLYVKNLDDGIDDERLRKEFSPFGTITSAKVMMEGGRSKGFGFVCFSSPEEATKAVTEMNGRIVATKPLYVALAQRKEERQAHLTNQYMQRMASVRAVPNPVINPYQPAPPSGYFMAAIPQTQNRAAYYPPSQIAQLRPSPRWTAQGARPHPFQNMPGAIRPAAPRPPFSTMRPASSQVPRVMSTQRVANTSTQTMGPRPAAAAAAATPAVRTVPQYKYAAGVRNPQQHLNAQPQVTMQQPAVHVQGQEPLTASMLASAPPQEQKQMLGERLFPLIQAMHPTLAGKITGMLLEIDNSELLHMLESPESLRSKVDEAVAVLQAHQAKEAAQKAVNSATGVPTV

ACACACACACACACACACACAAAAAAAAAAAAAAAAAAAA (ssRNA) [(AC)10A20, poly(A)-containing linear RNA]
binding result [1]: binds

GGGGCCAGAUCUGAGCCUGGGAGCUCUCUGGCCC (structured_RNA) [TAR-9SL]
binding result (ISG20 WT): binds
